Laboratory results reported in publication doi:10.1101/2024.07.31.606000.

Target: recombinant full-length thrombospondin-1 (human) (UniProt P07996)
Test: SPR

recombinant full-length thrombospondin-1 (human), sequence (P07996 19-1170): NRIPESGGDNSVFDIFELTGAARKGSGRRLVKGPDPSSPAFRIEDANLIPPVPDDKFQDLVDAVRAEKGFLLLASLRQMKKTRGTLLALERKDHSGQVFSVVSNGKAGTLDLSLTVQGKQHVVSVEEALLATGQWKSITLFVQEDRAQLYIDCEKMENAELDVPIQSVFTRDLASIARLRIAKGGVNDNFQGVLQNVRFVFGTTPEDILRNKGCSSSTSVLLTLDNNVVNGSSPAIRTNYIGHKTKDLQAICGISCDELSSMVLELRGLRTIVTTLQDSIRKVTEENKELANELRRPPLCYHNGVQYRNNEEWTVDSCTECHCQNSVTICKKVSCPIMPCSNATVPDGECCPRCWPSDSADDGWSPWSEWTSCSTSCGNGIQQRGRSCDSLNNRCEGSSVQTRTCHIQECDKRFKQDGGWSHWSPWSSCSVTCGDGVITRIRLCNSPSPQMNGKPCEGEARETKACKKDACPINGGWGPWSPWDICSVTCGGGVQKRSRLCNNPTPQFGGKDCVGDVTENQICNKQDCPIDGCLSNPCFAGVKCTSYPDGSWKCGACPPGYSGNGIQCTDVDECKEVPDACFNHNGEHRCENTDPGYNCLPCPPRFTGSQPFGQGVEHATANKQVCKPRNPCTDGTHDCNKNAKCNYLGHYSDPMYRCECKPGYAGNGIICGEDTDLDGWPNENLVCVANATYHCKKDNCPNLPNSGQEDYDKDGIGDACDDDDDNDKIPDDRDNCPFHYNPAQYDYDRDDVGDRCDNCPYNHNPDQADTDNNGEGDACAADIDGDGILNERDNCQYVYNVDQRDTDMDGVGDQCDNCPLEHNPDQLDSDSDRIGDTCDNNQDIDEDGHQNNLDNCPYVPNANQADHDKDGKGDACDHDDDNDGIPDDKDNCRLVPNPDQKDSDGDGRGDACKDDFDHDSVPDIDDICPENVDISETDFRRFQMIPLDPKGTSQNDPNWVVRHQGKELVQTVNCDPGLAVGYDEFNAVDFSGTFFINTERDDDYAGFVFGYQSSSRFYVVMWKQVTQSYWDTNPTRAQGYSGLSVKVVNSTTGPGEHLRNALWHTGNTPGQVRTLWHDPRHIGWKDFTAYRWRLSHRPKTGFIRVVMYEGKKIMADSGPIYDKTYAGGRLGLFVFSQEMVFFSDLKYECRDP

complement C5 (natural protein) showed a Kd of 47 nM.

complement C3 (natural protein) gave a Kd of 127 nM.
